Data set [1] can be described thus: Release of aminopterin in dog hepatic cytosol. The format is in vitro ADME. To be noted: 5% dog liver cytosol, 1 hour; for pH dependence of aminopterin release from the conjugate: pH 4.5, 6.0, 7.4, 37° C. The method, then:
(§1) EC2319 and EC1669 were incubated in 5% rat, dog, and human hepatic cytosol at different pH's to look at release of aminopterin from these conjugates. Liver cytosols from male Sprague-Dawley rats (Lot No. 1110428), male beagle dogs (Lot no. 1310024), and male humans (Lot No. 0710493), all containing 10 mg/mL protein, were obtained from Xenotech LLC (Lenexa, Kans.). These were diluted 20× in either 0.5 M sodium acetate buffer, pH 4.5, 0.5 M sodium acetate buffer, 6.0, or 0.5 M potassium phosphate buffer, pH 7.4 in a final volume of 500 μL. Reactions were initiated by the addition of 1 μL of either EC2319 or EC1669 and the reaction mixtures incubated at 37° C. for 1 hour. At the end of the incubation, a 100 μL aliquot was withdrawn into a cluster tube and the reaction was terminated by the addition of 5 μL of stabilizer solution (containing 8.5 mg/ml N-Maleoyl-β-alanine, 20 mg/mL mannitol and 0.075% acetic acid) and 100 μL of acetonitrile containing d5-aminopterin. The tubes were vortexed and then centrifuged at 4000 rpm for 10 minutes (Eppendorf centrifuge 5810R). 150 μL of the supernatant was transferred to 96-well plates and the acetonitrile evaporated off under nitrogen at 35° C. for 5 minutes. The extract was diluted with 50 μL of mobile phase A. The plate was vortexed on a VX-2500 multi-tube vortexer (VWR International, Radnor, Pa.) and the extract analyzed by LC-MS/MS.

Data set [2] can be described thus: Release of aminopterin in rat hepatic cytosol. The format is in vitro ADME. Particulars: 5% rat liver cytosol, 1 hour; for pH dependence of aminopterin release from the conjugate: pH 4.5, 6.0, 7.4, 37° C. The protocol: as §1
Data set [3] is described as follows: Incubation with rat TG macrophage cell lysates. The class given is in vitro ADME. To be noted: rat TG macrophage lysate, pH 4.5, 37° C., 1 hour. The method, then:
Female Lewis rats approximately 200 grams in size (Harlan Laboratories, Indianapolis, Ind.) were injected intraperitoneally at 20 mL/kg of body weight with sterile 7.5% thioglycollate solution (BD Biosciences) supplemented with 12.5% BSA aged for more than 6 months in the presence of 0.5 M D-glucose at 37° C. in the dark according to the procedure of Li et al. (Journal of Immunological Methods (1997) 201:183-188). Three days later these rats were humanely euthanized with CO2 asphyxiation and total peritoneal cells isolated by intraperitoneal lavage with 50 mL of sterile phosphate buffered saline (PBS) containing 0.5 mM EDTA. Red blood cells were lysed with a 5 minute incubation with 1×RBC lysis buffer (BioLegend, San Diego, Calif.). […] Cells were incubated for 2 hrs in 5% CO2. After two hours, floating cells/debris was removed and the adherent cells were washed once with drug free media. Normal growth media (10% FCS RPMI1640) was added to each plate of cells and then incubated for 1, 2 and 3 days in the tissue culture incubator. The adherent cells were harvested using an 8 minute trypsin digest to loosen the cells and then gently scraped off the plate. […] Live cells were counted and then washed once with cold PBS. […]

Data set [4] in a line: Plasma protein binding by ultrafiltration, human plasma. The class given is in vitro ADME. Particulars: 500 nM. The method, then:
(§2) EC2319 and EC1669 plasma protein binding was evaluated by ultra filtration using VWR 30K MWCO modified PES filters. 250 μL of 500 nM EC2319 or EC1669 in K3EDTA plasma incubated at 37° C. was added to the upper filter vessel. 50 μL was immediately removed as the donor plasma sample and aliquoted into a clean 1.2 mL plate. […] An aliquot of […] plasma ultrafiltrate was then added to the 1.2 mL plate as the receiver sample. To each plasma sample, 50 μL of plasma ultrafiltrate was added, and each ultrafiltrate sample received 50 μL of plasma to mitigate matrix effects. N-Maleoyl-β-alanine, mannitol, and acetic acid were added at the end of each experiment to stabilize the samples prior to LC-MS/MS analysis.

A short description of data set [5]: Plasma protein binding by ultrafiltration, rat plasma. Particulars: 500 nM. The format is in vitro ADME. The protocol: as §2
The nature of data set [6]: Incubation with RAW264.7 cell lysates. The class given is in vitro ADME, mouse. To be noted: RAW264.7 lysate, pH 4.5, 37° C., 2 hours. The protocol: (§3) To 100 μL AIA rat macrophage, RAW264.7 or THP-1 FRβ cell lysates (each containing 10 million cells/mL 0.1 M sodium acetate, Ph 4.5) was added 2 μL of a 50 μM solution of EC2319 or EC1669 (Endocyte, Inc.). The solutions were incubated at 37° C. in a heat block (VWR International, Radnor, Pa.) for 2 hours. The reaction was terminated by the addition of 5 µL of stabilizer solution and 100 μL of acetonitrile containing d5-aminopterin (Endocyte, Inc.). The rest of the workup is as described above.

The nature of data set [7]: Plasma protein binding by ultrafiltration, dog plasma. The format is in vitro ADME. Particulars: 500 nM. The method, then:
as §2

Data set [8] is described as follows: Incubation with THP-1 FRβ cell lysates. The class given is in vitro ADME, human. To be noted: THP-1 FRβ lysate, pH 4.5, 37° C., 2 hours. The method, then: as §3
Data set [9] is described as follows: Release of aminopterin in human hepatic cytosol. The format is in vitro ADME. Particulars: 5% human liver cytosol, 1 hour; for pH dependence of aminopterin release from the conjugate: pH 4.5, 6.0, 7.4, 37° C. The protocol: as §1

The values below come from US20180280528A1, “ANTIFOLATE CONJUGATES FOR TREATING INFLAMMATION” (ENDOCYTE, INC., priority 2015, published 2018).

`COC(=O)[C@H](CSSC(C)(C)[C@H](NC(=O)[C@H](CCC(=O)NC[C@H](O)[C@@H](O)[C@H](O)[C@H](O)CO)NC(=O)[C@H](CCC(=O)O)NC(=O)[C@H](CCC(=O)NC[C@H](O)[C@@H](O)[C@H](O)[C@H](O)CO)NC(=O)[C@H](CCC(=O)O)NC(=O)[C@H](CCC(=O)NC[C@H](O)[C@@H](O)[C@H](O)[C@H](O)CO)NC(=O)CC[C@H](NC(=O)c1ccc(NCc2cnc3nc(N)[nH]c(=O)c3n2)cc1)C(=O)O)C(=O)O)NC(=O)CC[C@H](NC(=O)c1ccc(NCc2cnc3nc(N)nc(N)c3n2)cc1)C(=O)O` [EC2319]: the “magnitude of aminopterin release” value in [1] (37° C.), in data set [2] (37° C.) and in data set [9] (37° C.) was “lower than that from EC1669” throughout. In addition, the “pH dependence of aminopterin release from the conjugate” value in [1] is listed as “highest at pH 4.5”; in data set [2], “broad pH specificity”; in data set [9], “highest at pH 4.5”. Besides, the aminopterin release result in data set [3], in data set [6] and in data set [8] was “aminopterin release was observed” in each case. The plasma protein binding result in [4], in data set [5] and in data set [7] was “higher plasma protein binding than did EC1669” in each case.

With `N=c1[nH]c(N)nc2ncc(CNc3ccc(C(=O)N[C@@H](CCC(=O)NNC(=O)OCCSSC[C@@H](NC(=O)[C@H](CCC(=O)NC[C@H](O)[C@@H](O)[C@H](O)[C@H](O)CO)NC(=O)[C@@H](CCC(=O)O)NC(=O)[C@H](CCC(=O)NC[C@H](O)[C@@H](O)[C@H](O)[C@H](O)CO)NC(=O)[C@@H](CCC(=O)O)NC(=O)[C@H](CCC(=O)NC[C@H](O)[C@@H](O)[C@H](O)[C@H](O)CO)NC(=O)CC[C@H](NC(=O)c4ccc(NCc5cnc6nc(N)[nH]c(=O)c6n5)cc4)C(=O)O)C(=O)O)C(=O)O)cc3)nc12` [EC1669, reference compound], the results for the “pH dependence of aminopterin release from the conjugate” value in data set [1], in data set [2] and in data set [9] were “highest at pH 4.5”, “broad pH specificity” and “highest at pH 4.5”, respectively. The aminopterin release entry in [3], in data set [6] and in data set [8] was “greater from EC1669 than from EC2319” each time. For the same molecule, the plasma protein binding result in data set [4], in [5] and in data set [7] was “high plasma protein binding” throughout.
